Assay: soluble on expression in E. coli; label from the status in PepcDB or PDB records
In the case of “SAAALRVAAVGARLSVLASGLRAAVRSLCSQATSVNERIENKRRTALLGGGQRRIDAQHKRGKLTARERISLLLDPGSFVESDMFVEHRCADFGMAADKNKFPGDSVVTGRGRINGRLVYVFSQDFTVFGGSLSGAHAQKICKIMDQAITVGAPVIGLNDSGGARIQEGVESLAGYADIFLRNVTASGVIPQISLIMGPCAGGAVYSPALTDFTFMVKDTSYLFITGPDVVKSVTNEDVTQEELGGAKTHTTMSGVAHRAFENDVDALCNLRDFFNYLPLSSQDPAPVRECHDPSDRLVPELDTIVPLESTKAYNMVDIIHSVVDEREFFEIMPNYAKNIIVGFARMNGRTVGIVGNQPKVASGCLDINSSVKGARFVRFCDAFNIPLITFVDVPGFLPGTAQEYGGIIRHGAKLLYAFAEATVPKVTVITRKAYGGAYDVMSSKHLCGDTNYAWPTAEIAVMGAKGAVEIIFKGHENVEAAQAEYIEKFANPFPAAVRGFVDDIIQPSSTRARICCDLDVLASKKVQRPWRKHANIPL”, the “soluble on expression in E. coli” value is reported as “soluble”. With “SAAEGDFLMRYRAVSNKLKKRFLRKPNVAEASEQFGQLAKELKQQDCPQYAAFCNLAMARCEQTLFNAPGEALALTDAARLFLASEQETRALRAPGFDENMQAAMNCYSFAIKVYIEMNQPVMAARLSLELGNALKEMNRPGEAIIHFQRAAELQIQMPIEALLSLWEMASCKILTRDYDGALAVLSEMQHMCQERGLQLPGTNTPVGAFMDIIAKCEISRVLLLMLLEPPPQKLLPEHAQTLERYAWESFDSHSQMACQEKDTESLKALQTELW” the “soluble on expression in E. coli” value was “soluble”. In the case of “SAALAGVFVWDEERIQEEELQRSINEMKRLEEMSNMFQSSGVQHHPPEPKAQTEGNEDSEGKEQRWEMVMDKKHFKLWRRPITGTHLYQYRVFGTYTDVTPRQFFNVQLDTEYRKKWDALVIKLEVIERDVVSGSEVLHWVTHFPYPMYSRDYVYVRRYSVDQENNMMVLVSRAVEHPSVPESPEFVRVRSYESQMVIRPHKSFDENGFDYLLTYSDNPQTVFPRYCVSWMVSSGMPDFLEKLHMATLKAKNMEIKVKDYISAKPLEMSSEAKATSQSSERKNEGSCGPARIEYA”, the “soluble on expression in E. coli” value is reported as “soluble”. In the case of “SADWARAQSPGAVEEILDRENKRMADSLASKVTRLKSLALDIDRDAEDQNRYLDGMVRAHGVRVSVPCPSTTCCRACSVSFSTGAGGWSNHHFCVILLGFLP”, the “soluble on expression in E. coli” value is reported as “soluble”. For “SAEDGLPKIYSHPPTESSKTPTAATIFFGADNAIPKSETTITSEGDHVTSVNEYMLESDFSTTTDNKLTAKKEKLKSEDDMGTDFIKSTTHLQKEITSLTGTTNSITRDSITEHFMPVKIGNISSPVTTVSLIDFSTDIAKEDILLATIDTGDAEISITSEVSGTLKDSSAGVADAPAFPRKKDEADMSNYNSSIKSNVPADEAVQVTDSIIPEAEIPPAPEESFTTIPDITALEEEKITEIDLSVLEDDTSAVATLTDSDEKFITVFELTTSAEKDKDKREDTLLTDEETTEGASIGMERDTANEAETHSVLLTAVESRYDFVVPASIATNLVEESSTEEDLSETDNTETVPKITEPFSGTTSVLDTPDYKEDTSTTETDIFELLKEEPDEFMI”, the “soluble on expression in E. coli” value was “not soluble”. With “SAEGEDVGWWRSWLQQSYQAVKERSTEALEFMKRDLTEFTQVVQHDTACTIAATASVVKEKLATEGSSGATEKVKKGLSDFLGVISDTFAPSPDKTIDCDVITLMGTPSGTAEPYDGTKARLYSLQSDPATYCNEPDGPPELFDAWLSEFCLEEKKGEISELLVGSPSIRALYTKMVPAAVSHSEFWHRYFYKVHQLEQEQARRDALKQRADQSISEEPGWEEEEEELEGIVPSPKEAKIPKETKTTTSPEDEPAPQSPCEETPVEPPAEATPSESSESISLVTQVANPAAAPEAPELPKDLSQKLFEASLEEQSLAEDEGETGPPPPPPSKPLTPAGRASGPEPRPPARVETLREEVPTDLRVFELNSDSGKSTPSNNGKKGSSTDISEDWEKDFDLDMTEEEVQMALSKVDASGELEDVEWEDWE” the “soluble on expression in E. coli” value was “not soluble”. In the case of “SAENERMYISYNNIHKLCQGVAKHILARNERPDIIIAITGGGMIPARIIRSFLKTKGQKNIPIQAIGLSLYEDLGLDNSVETIGKEVIRTQWLDFGALNQHFDSLIGKKVLIVDEVDDTRTTLHYAVSELEKEIAEQQKVLNRMSEETVISIFVLHNKDKPKRAGLPDSMMNSGRYIAAQTVPDKWLCYPWDAEDIEEHTMLAKAQGHD”, the “soluble on expression in E. coli” value is reported as “soluble”. For “SAESPAFLSAKDEGSFAYLTIKDRTPQILTKVIDTLHRHKSEFFEKHGEEGIEAEKKAISLLSKLRNELQTDKPITPLVDKCVDTHIWNQYLEYQRSLLNEGDGEPRWFFSPWLFVECYMYRRIHEAIMQRQVYSQ”, the “soluble on expression in E. coli” value was “soluble”. In the case of “SAGSVADSDAVVKLDDGHLNNSLSSPVQADVYFPRLIVPFCGHIKGGMRPGKKVLVMGIVDLNPESFAISLTCGDSEDPPADVAIELKAVFTDRQLLRNSCISGERGEEQSAIPYFPFIPDQPFRVEILCEHPRFRVFVDGHQLFDFYHRIQTLSAIDTIKINGDLQITKLG”, the “soluble on expression in E. coli” value is reported as “soluble”. In the case of “SALSSCASLLGSPLSNDFMVLSLSDLLTPWEVIRKRAEAAAILDLVTVIYNPRGSRFPNNLEKVMEYFLKYRSGDTPVGIVRNAYRPDQSAKIVQLKDFSCSEIDMLTTVIIGNSETY”, the “soluble on expression in E. coli” value is reported as “not soluble”. In the case of “SAQEEGGSLPEVRARVRAAHGIPDLAQKLHFYDRWAPDYDQDVATLLYRAPRLAVDCLTQALPGPPHSALILDVACGTGLVAAELRAPGFLQLHGVDGSPGMLEQARAPGLYQRLSLCTLGQEPLPSPEGTFDAVLIVGALSDGQVPCNAIPELHVTKPGGLVCLTTRTNWSNLQYKEALEATLDRLEQAGMWEGLVAWPVDRLWTAGSWLPPSWWWYPASLPRMASSPALSTCTESGRRPRLRK”, the “soluble on expression in E. coli” value is reported as “soluble”. With “SASTIYTCKECGSDLNLNPNDLFPPDFYFEAGNKGTLSFAAVDAEKFRFEKEDKIMPFFETLNYWGIQRKRTKIKCTSCNHLIGYIYDDGPPLTGGIGQYGFGPSQVIPRAPRYRFKTKARQDGWQYGGLTAFWN” the “soluble on expression in E. coli” value was “soluble”. For “SATETQIRIGVMGCADIARKVSRAIHLAPNATISGVASRSLEKAKAFATANNYPESTKIHGSYESLLEDPEIDALYVPLPTSLHVEWAIKAAEKGKHILLEKPVAMNVTEFDKIVDACEANGVQIMDGTMWVHNPRTALLKEFLSDSERFGQLKTVQSCFSFAGDEDFLKNDIRVKPGLDGLGALGDAGWYAIRATLLANNFELPKTVTAFPGAVLNEAGVILSCGASLSWEDGRTATIYCSFLANLTMEITAIGTKGTLRVHDFIIPYKETEASFTTSTKAWFNDLVTAWVSPPSEHTVKTELPQEACMVREFARLVGEIKNNGAKPDGYWPSISRKTQLVVDAVKESVDKNYQQISLSGR”, the “soluble on expression in E. coli” value was “soluble”. In the case of “SATGTPESQARFGQSVKGLLTEKVTTCGTDVIALTKQVLKGSRSSELLGQAARNMVLQEDAILHSEDSLRKMAIITTHLQYQQEAIQKNVEQSSDLQDQLNHLLK”, the “soluble on expression in E. coli” value is reported as “soluble”. In the case of “SAVAVEGARRKERILCLFDVDGTLTPARQKIDPETIQNHLGEELLQDLINFCLSYMALLRLPKKRGTFIEFRNGMLNVSPIGRSCTLEERIEFSELDKKEKIREKFVEALKTEFAGKGLRFSRGGMISFDVFPEGWDKRYCLDSLDEDSFDIIHFFGNETSPGGNDFEIYADPRTVGHSVVSPQDTVQRCRELFFPETAHEA”, the “soluble on expression in E. coli” value is reported as “soluble”. For “SCIIFFKFDPRPVSKNAYRLILAANRDEFYSRPSKLADFWGNNNEILSGLDMEEGKEGGTWLGISTRGKLAALTNYLQPQLDWQARGRGELVTHFLTTDVDSLSYLKKVSMEGHLYNGFNLIAANLSTAKGDVICYYGNRGEPDPIVLTPGTYGLSNALLETPWRKLCFGKQLFLEAVERSQALPKDVLIASLLDVLNNKEAQLPDPAIEDQGGEYVQPMLSKYAAVCVRCPGYGTRTNTIILVDADGHVTFTERSMMDKDLSHWETRTYEFTLQS”, the “soluble on expression in E. coli” value was “not soluble”. With “SCRRAFDLYFVLDKSGSVANNWIEIYNFVQQLAERFVSPEMRLSFIVFSSQATIILPLTGDRGKISKGLEDLKRVSPVGETYIHEGLKLANEQIQKAGGLKTSSIIIALTDGKLDGLVPSYAEKEAKISRSLGASVYCVGVLDFEQAQLERIADSKEQVFPVKGGFQALKGIINSILAQSC” the “soluble on expression in E. coli” value was “soluble”. For “SDGPERDFNLKVVLISFKKCLTDKGEVLLDHYTASWKGLVRFLNSLGAVFSFISKDVVSKLQIMEHLRSGPQSEHYISLQSMVAYEVSNKLVDRDSRSRPRHPNSGCRTVLRLHRALHWLQLFLEGLRTSSEDARTSTLCSEAYNATLAAYHSWIVRQAVNVAFHALPPRKVFLEAMNMGSSEQAVEMLGEALPFIEQVYDISQKLYAEHSLLDLP”, the “soluble on expression in E. coli” value was “soluble”. In the case of “SDIELIHCGADLVERMMNDIRQAASSVHMMFFIMKNDEVSHNMYTLLKTKAQAGVSVYLLLDWAGCRAIKKTALQTMKNAGVHVHVMNRPRFPFFFFHMQKRNHRKITVIDGKIGYIGGFNIAEEYLGKKAKFGNWEDYHLRMIGEGVHDLQTLFASDLKRNTGIELGSDVWPKLQQGTISHKIYATDGYSLENIYLANIAQAKNRLTVCTPYYIPSKPLQEALINARKNGVSVRIIVPMKSDHPLVREAAFTYYSELLDAGCLIYRYYQGFYHVKALIIDDHLSIIGTANFDKRSLFLNEEVNVEIDDEAFTSEVYATIEEDMKKSELLTMEDFSKRTFRQRPAEWLGR”, the “soluble on expression in E. coli” value is reported as “not soluble”. For “SDNLSSEEIQQRAHQITDESLESTRRILGLAIESQDAGIKTITMLDEQKEQLNRIEEGLDQINKDMRETEKTLTELNKCCGLCVCPCNRTKNFESGKAYKTTWGDGGENSPCNVVSKQPGPVTNGQLQQPTTGAASGGYIKRITNDAREDEMEENLTQVGSILGNLKDMALNIGNEIDAQNPQIKRITDKADTNRDRIDIANARAKKLIDS”, the “soluble on expression in E. coli” value was “soluble”. With “SDPDADRVGIACKNDKGEWVLINGNQTCLMYLYYIITQYNKLGKMTGNEFCVKTIVTTELIKKIADKNHIEMLDCYTGFKWIAREIRLREGKKKYIGGGEESYGFLAEDFVRDKDAVSACCLIAEVAAWAKDNGKTLYQLLMDIYVEYGFSKE” the “soluble on expression in E. coli” value was “not soluble”. In the case of “SDVYNNTAFFEQYMKRRYRENSPNESIEKPVFFQLIGHVQGKQILDLGCGDAKFGAELLEKGCYSYTGIEGSELMYEKAKKQLENKNGSVHFLNLKDYTYPSSTFDLVTSRLALHYIEHLDTIFQNVFQTLKTNGTFTFSVQHPVITSSFESLQTSGKRTIWLVDDYFKLGKRVEPWIDQEVIKYHRTTEEYFTLLQQAGFTITSLKEATPNPTYFQDEEEYKRRLRIPLFLLFSCTK”, the “soluble on expression in E. coli” value is reported as “soluble”. In the case of “SDYFRSCWGPRSPAGHRVRGSDVAGRQDGLLWYKDAGQLVTGEFSMAVVQANNLLEDQSQVESGALSMAEPGPQGTFIGVYDGHGGPETARFINDHMFHHLRRFATEHKCMSTDVIRKAFQATEEGFLSLVSKQWSLKPQIAAVGSCCLVGVICSGTLYVANLGDSRAVLGRFVKSTGEVVATQLSSEHNACYEEVRQELQASHPDDPQIVVLKHNVWRVKGLIQISRSIGDVYLKRPEYNREPLHSKFRLRETFKRPILSSEPAIAVHQIQPNDHFVIFASDGLWEHLSNQEAVDLVQNNPRNGIARRLVKVAMQEAAKKREMRYSDLKKIDRGVRRHFHDDITVIVVFLDSNAISKANWSRGPSVSLRGGGVTLPANSLAPFSTPTVLSSTY”, the “soluble on expression in E. coli” value is reported as “soluble”. In the case of “SEAVLTEELDEEEQLLRRHRKEKKELQAKIQGMKNAVPKNDKKRRKQLTEDVAKLEKEMEQKHREELEQLKLTTKENKIDSVAVNISNLVLENQPPRISKAQKRREKKAALEKEREERIAEAEIENLTGARHMESEKLAQILAARQLEIKQIPSDGHCMYKAIEDQLKEKDCALTVVALRSQTAEYMQSHVEDFLPFLTNPNTGDMYTPEEFQKYCEDIVNTAAWGGQLELRALSHILQTPIEIIQADSPPIIVGEEYSKKPLILVYMRHAYGLGEHYNSVTRLVNIVTENCS”, the “soluble on expression in E. coli” value is reported as “soluble”.

Source: the DeepSol protein solubility set
